Assay [1] concerns the target T1, fragment of human MUC1 immunodominant core peptide (APDTRPAPGSTAPPA) (human).
T1 construct: also called MUC1 peptide; human MUC1 truncated peptide
T1 peptide: APDTRPAPGSTAPPA
Briefly: co-crystallisation, X-ray structure.

In assay [2] the target is T2, biotinylated synthetic VNTR peptide of MUC1 (APDTRPAPGSTAPPAC-biotin) (human).
T2 construct: also called human MUC1-VNTR peptide
T2 peptide: APDTRPAPGSTAPPAC-biotin
Briefly: Biacore, human MUC1-VNTR; ka1.

Assay [3] concerns the target T2, biotinylated synthetic VNTR peptide of …. Briefly: Biacore, human MUC1-VNTR; kd1. (In SPR one partner is held on a chip, and binding of the other changes the refractive index at the surface.)
Assay [4] shares this target. Briefly: Biacore, human MUC1-VNTR peptide.

Where no end group is shown, it is not given here.

B1: H02-scFv, the MUC1-binding arm of Molecule 1 (scFv)
scFv: QMQLVQSEAELKKPGASVKVSCKASGYSFTSHFMHWVRQAPGQGLEWMGWIDPVTGGTKYAQNFQGWVTMTRDTSIRTAYLELSRLRSDDTAMYYCAREARADRGQFDKWGQGTLVTVASGGGGSGGGGSGGGGSQSVLTQPPSVSVAPGKTARITCGGNNIGSKSVHWYQQKPGQAPALVIYYGSNRPSGIPERFSGSNSGNTATLTISRVEAGDEADYYCQVWDSSSDWVFGGGTKLTVL
As to B1, in assay [1], the binding result is listed as “binds”.

B2: 1993-H02 with an HT186-D11 light chain (anti-MUC1 antibody H02) (antibody, V domains shown)
VH: QMQLVQSEAELKKPGASVKVSCKASGYSFTSHFMHWVRQAPGQGLEWMGWIDPVTGGTKYAQNFQGWVTMTRDTSIRTAYLELSRLRSDDTAMYYCAREARADRGQFDKWGQGTLVTVAS
VL: QSVLTQPPSVSVAPGKTARITCGGNNIGSKSVHWYQQKPGQAPALVIYYGSNRPSGIPERFSGSNSGNTATLTISRVEAGDEADYYCQVWDSSSDWVFGGGTKLTVL
notes: One molecule is used here for both experiments
As for B2, the kon (usually a measure of how fast the partners come together) in assay [2] was 126000 M⁻¹ s⁻¹. The off-rate constant (koff) (in general, the rate constant with which the complex falls apart) in assay [3] came to 0.0017 s⁻¹. Binding in assay [4] was put at a Kd of 901 pM.

The values above are taken from patent US20230310629A1 (Merck KGaA, published 2023).
